According to PMC8299219 (Cell, 2021):

B1: C882C12 (antibody, V domains shown)
VH: QVQLVQSGAEVKKPGASVKVSCKASGYTFTGYYMHWVRQAPGQGLEWMGWINPNSDVTNYAQKFQGWVTMTRDTSISTAYMELSRLRSDDTAVYYCAREIPSSGYYSGGLDYWGQGTLVTVSS
VL: QSALTQPRSVSGSPGQSVTISCTGTSSDVGGYNYVSWYQQYPGKAPKLMIYDVSKRPSGVPDRFSGSKSGNTASLTISGLQAEDEADYYCCSYAGTYTGVFGGGTKLTVL
B2: C83B8 (antibody, V domains shown)
VH: QVQLVQSGAEVKKPGSSVKVSCKASGGTFSSYAISWVRQAPGQGLEWMGGIIPIFGTANYAQKFQGRVTITADESTSTAYMELSSLKSEDTAVYYCASTSYYDSSGYYLDYWGQGTLVTVSS
VL: EIVLTQSPATLSLSPGERATLSCRASQSVSSFLAWYQQKPGQAPRLLIYDASNRATGIPARFSGSGSGTDFTLTISSLEPEDFAVYYCQQRSNWPPKITFGQGTRLEIK
B3: C163D1 (antibody, V domains shown)
VH: QVQLVQSGAEVKKPGSSVKVSCKASGGTFSSYAISWVRQAPGQGLEWMGGIIPIFGTANYAQKFQGRVTITADESTSTAYMELSSLRSEDTAVYYCARVSGYDSSGYSPDYWGQGTLVTVSS
VL: EIVLTQSPATLSLSPGERATLSCRASQSVSSYLAWYQQKPGQAPRLLIYDASNRATGIPARFSGSGSGTDFTLTISSLEPEDFAVYYCQQRSNWPPRLTFGGGTKVEIK
B4: C83A10 (antibody, V domains shown)
VH: QVQLVQSGAEVKKPGSSVKVSCKASGGTFSSYAISWVRQAPGQGLEWMGGIIPIFGTAKYAQKFQGRVTITADESTSTAYLELSSLRSEDTAVYYCARVGPYDSSGYYYDYWGQGTLVTVSS
VL: EIVLTQSPATLSLSPGERATLSCRASQSVSSYLAWYQQKPGQAPRLLIYDASNRATGIPARFSGSGSGTDFTLTISSLEPEDFAVYYCQQRSNWPPMYTFGQGTKLEIK
B5: C102A1 (antibody, V domains shown)
VH: QVQLVQSGAEVKKPGSSVKVSCEASGGTFSSYAISWVRQAPGQGLEWMGGIIPIFGTANYAQKFQGRLTITADESTSTAFMELSSLRSEDTAVYYCARTYYYDSSGYSHDYWGQGTLVTVSS
VL: EIVLTQSPATLSLSPGERATLSCRASQSLSSFLAWYQQKPGQAPRLLIYDASNRATGIPARFSGSGSGTDFTLTISSLEPEDFAVYYCQQRTNWPPRITFGQGTRLEIK
B6: C81H2 (antibody, V domains shown)
VH: QVQLVQSGSELKKPGASVKVSCKASGYTFTSYAMNWVRQAPGQGLEWMGWINTNTGNPTYAQDFTGRFVFSLDTSVSTAYLQISSLKAEDTAMYYCARGSMITFGGILEPVLQFDYWGQGTLVTVSS
VL: not shown
B7: C81D7 (antibody, V domains shown)
VH: not shown
VL: SYELTQPPSVSVAPGKTARITCGGNNIGSKSVHWYQQKPGQAPVLVVYDDSDRPSGIPERFSGSNSGNTATLTISRVEAGDEADYYCQVWDSSSDSWVFGGGTKLTVL
B8: C81E4 (antibody, V domains shown)
VH: QVQLVESGGGVVQPGRSLRLSCEASGFTFSNYAMHWVRQAPGKGLEWVAVISYDGSNKYYADSVKGRFTISRDNSKNTLYLQMNSLRAEDTAVYYCASCGITMVQGAHPDAFDIWGQGTMVTVSS
VL: SYELTQPPSVSVAPGKTARITCGGNNIGTKSVHWYQQKPGQAPVLVVYDDSDRPSGIPERFSGSNSGNTATLTISRVEAGDEADYYCQVWDRSSDHVLFGGGTKLTVL
B9: G32M5 (antibody, V domains shown)
VH: EVQLLESGGGLVQPGGSLRLSCAASGFTFSSYAMSWVRQAPGKGLEWVSGISASGGSTYYADSVKGRFTISRDNSKNTLYLQMNSLRAEDTAVYYCAKDGGPYSKGPYHYYGMDVWGQGTTVTVSS
VL: QSVLTQPPSVSAAPGQKVTISCSGSSSNIGNNYVSWYQQLPGTAPKLLIYDNNKRPSGIPDRFSGSKSGTSATLGITGLQTGDEADYYCGTWDSSLSAYVFGTGTKVTVL
B10: C63D4 (antibody, V domains shown)
VH: EVQLVESGGGLVQPGGSLRLSCAASGFTFSTYEMNWVRQAPGKGLEWVSYISSSGSTISYADSVKGRFTISRDNAKNSLYLQMNSLRAEDTAVYYCARDSPHYDYIWGSYRLRGAFDIWGQGTMVTVSS
VL: QSALTQPPSASGSPGQSVTISCTGTSSDVGGYNYVSWYQQHPGKAPKLMIYEVSKRPSGVPDRFSGSKSGNTASLTVSGLQAEDEADYYCSSYTGSNTLYVFGTGTKVTVL
B11: C12A8 (antibody, V domains shown)
VH: QVQLVQSGAEVKKPGASVKVSCKVSGYTLTELSMHWVRQAPGKGLEWMGGFDPEDGETIYAQKFQGRVTMTEDTSTDTAYMELSSLRSEDTAVYYCATVSWPNYYDGTLYYFDYWGQGTLVTVSS
VL: DIQMTQSPSSLSASVGDRVTITCRASQGIRNDLGWYQQKPGKAPKRLIYAASSLQSGVPSRFRGSGSGTEFTLTISSLQPEDFATYYCLQHYSYPFTFGPGTKVDIK
B12: C18D5 (antibody, V domains shown)
VH: QVQLVQSGAEVKTPGASVKVSCKASGFTFTNYDLNWVRQAPGQGLEWMGWMNPKSGDTRSAQRFQGRVTMTRDTSISTAYMEMNTLRSEDTAVYYCARGRGDYSDDDFPALYLWGQGTLVTVSS
VL: not shown
B13: C12D8 (antibody, V domains shown)
VH: EVQLVESGGGLVQPGGSLRLSCAASGFTFSSYWMSWVRQAPGKGLEWVANIKQDGSEKYYVDSVKGRFTISRDNAKNSLYLQMNSLRAEDTAVYYCARDDGLREPFDYWGQGTLVTVSS
VL: not shown
B14: C81H7 (antibody, V domains shown)
VH: QVQLVESGGGVVQPGRSLRLSCAASGFTFSSYGMHWVRQAPGKGLEWVAVIWYDGSNKYYAESVKGRFTISRDNSKNTLYLQMNSLRAEDTAVYYCARPPSVVRHDAFDIWGQGTMVTVSS
VL: SYELTQPPSVSVSPGQTARITCSGDALPKKYAYWYQQKSGQAPVLVIYEDSKRPSGIPERFSGSSSGTMATLTISGAQVEDEADYYCYSTDSSGNHGVFGGGTKLTVL
B15: C30A11 (antibody, V domains shown)
VH: QVQLVQSGAEVKKPGASVKVSCKASGYTFTGYYIHWVRQAPGQGLEWMGWINPNSGVTNYAQKFQGWVTMTRDTSISTAYMELSRLKSDDTAVYYCAREMQQLEGYYYYAMDVWGQGTTVTVSS
VL: not shown
B16: C41C3 (antibody, V domains shown)
VH: QVQLQESGPGLVKPSETLSLTCTVSGGSISSYYWSWIRQPPGKGLEWIGYIYYSGSTNYNPSLKSRVTISVDTSKNQFSLKLSSVTAADTAVYYCARAAEYYDFWSGYYRNWFDPWGQGTLVTVSS
VL: not shown
B17: C81G1 (antibody, V domains shown)
VH: QVQLVQSGAEVKKPGSSVKVSCKASGGTFSSYGITWVRQAPGQGLEWMGGIIPIFGTANYAQKFQGRVTITADESTSTAYMDLSSLRSEDTAVYYCAILGDDYNDVDYWGQGTLVTVSS
VL: not shown
B18: C81E3 (antibody, V domains shown)
VH: QVQLVESGGGVVQPGRSLRLSCAASGFTFSSYAMHWVRQAPGKGLEWVAVISYDGSNKYYADSVKGRFTISRDNSKNTLYLQMNSLRAEDTAVYYCARVSSMDVLRYFDPLDVWGNGTTVTVSS
VL: SYELTQPPSVSVSPGQTARITCSGDALPKQYAYWYQQKPGQAPVLVIYKDSERPSGIPERFSGSSSGTTVTLTISGVQAEDEADYYCQSADSSGTYHVVFGGGTKLTVL
B19: G32A12 (antibody, V domains shown)
VH: QVQLVQSGAEVKKPGASVKVSCKASGYTFTSYYMHWVRQAPGQGLEWMGIINPSGGSTSYAQKFQGRVTMTRDTSTSTVYMELSSLRSEDTAVYYCARDPTMTTVTTLDDYYYYYGMDVWGQGTTVTVSS
VL: not shown
B20: C81B2 (antibody, V domains shown)
VH: QVQLVQSGAEVKKPGASVKVSCKVSGYTLIELSMHWVRQAPGKGLEWMGGFDPEDGETIYAQKFQGRVTMTEDTSTDTAYMELSSLRSEDTAVYYCATGPSIAVRGWFDPWGQGTLVTVSS
VL: QSVLTQPPSVSAAPGQKVTISCSGSSSNIGNNYVSWYQQLPGTAPKLLIYENNKRPSGIPDRFSGSKSGTSATLGITGLQTGDEADYYCGTWDSSLSAGGVFGGGTKLTVL
B21: C81C6 (antibody, V domains shown)
VH: QVQLVQSGAEVKKPGASVKVSCKVSGYTLTELSMHWVRQAPGKGLEWMGGFDPEDGETIYAQKFQGRVTVTEDTSTDTAYMELSSLRSEDTAVYYCATSPAIAATGWLDPWGQGTLVTVSS
VL: QSALTQPASVSGSPGQSITISCTGTSSDVGSYNLVSWYQQHPGKAPKLMIYEGNKRPSGVSNRFSGSKSGNTASLTISGLQAEDEADYYCCSYAGSSTHWVFGGGTKLTVL
B22: C81G10 (antibody, V domains shown)
VH: QVQLVQSGAEVKKPGASVKVSCKVSGYTLTELSIHWVRQAPGKGLEWMGGFDPEDGETIYAQKFQGRVTMTEDTSTDTAYMELSSLRSEDTAVYYCATTTVLAAASWFDPWGQGTLVTVSS
VL: QSALTQPASVSGSPGQSITISCTGTNSDVGSYNLVSWYQQHPGKAPKLMIYEGSKRPSGVSNRFSGSKSGNTASLTISGLQAEDEADYYCCSYAGSGTVVFGGGTKLTVL
B23: C83B5 (antibody, V domains shown)
VH: EVQLVQSGAEVKKPGESLRISCKGSGYSFTSYWISWVRQMPGKGLEWMGRIDPSDSYTNYSPSFQGHVTISADKSISTAYLQWSSLKASDTAMYYCARQNYYDSSGHPDAFDIWGQGTMVTVSS
VL: not shown
B24: C83A8 (antibody, V domains shown)
VH: QVQLVQSGAEVKKPGSSVKISCKASGGTFSSNAISWVRQAPGQGLEWMGGIIPILTTTNYAERLQGRVTITADESTSTAYMELSSLRSEDTAVYYCASQGRKSCITVFGVVDLLCYSNGMDVWGQGTTVTVSS
VL: QSALTQPASVSGSPGQSITISCTGTSSDVGGYKYVSWYQHHPGKAPKLMIYDVSNRPSGVSNRFSGSKSGNTASLTISGLQAEDEAEYYCSSFTTSSTLVVFGGGTKLTVL

biological target: SARS-CoV-2 S ectodomain trimer, prefusion-stabilized, 2P variant (Wrapp et al., 2020) (SARS-CoV-2, Wuhan-Hu-1, UniProt P0DTC2, stabilised)

Q: Does B1 bind?
A: binds

Q: Does B2 bind?
A: binds

Q: Does B3 bind?
A: binds

Q: Does B4 bind?
A: binds

Q: Does B5 bind?
A: binds

Q: Does B6 bind?
A: binds

Q: Does B7 bind?
A: binds

Q: Does B8 bind?
A: binds

Q: Does B9 bind?
A: binds

Q: Does B10 bind?
A: binds

Q: Does B11 bind?
A: binds

Q: Does B12 bind?
A: binds

Q: Does B13 bind?
A: binds

Q: Does B14 bind?
A: binds

Q: Does B15 bind?
A: binds

Q: Does B16 bind?
A: binds

Q: Does B17 bind?
A: binds

Q: Does B18 bind?
A: binds

Q: Does B19 bind?
A: binds

Q: Does B20 bind?
A: binds

Q: Does B21 bind?
A: binds

Q: Does B22 bind?
A: binds

Q: Does B23 bind?
A: binds

Q: Does B24 bind?
A: binds
